Measured values reported in a protein production outcome set (Wang et al. 2014).

Assay: label from the status in PepcDB records

With “MANIEYDPERQLFHLHNDTFSYVIQVIRGYLVKRYCGPALDHFSGTAKLEDFSHAFNIQNDAAPYSLTTLPLEYSTLMGGDYRTPAYAVRNGHGQLIGNLKFDHYQILAGNESFNGTLPTARTPHGQTLIITMHDETQTLAVRLKYTIVGDLPVLLKQVEYRNLTDTTLTITHAASLQLDFDDHAYDLITLTGAHLNEAKVTRQPLTPGKKSIGSNYGASGPQGVPATILAAPATNEFAGEALGVTLLWSGNFNYTAQVDQFDNSRLVMGLNPELFAWQLKPGKPFVTPEAAVAYTNDGLNDLSRIFHRFFADHVMPLPRKNLIEYNTWETTYFDVSEAKILAEIPKAEELGVELLVIDDGWFKNRPNDAGQLGDWVPDPAKFPHGLRPVADAIHARGLAFGLWVEPEMISENSELYATHPDWAMQYVGQKPLRSRNQLILDLSQRIVQDHLITVLTNLVRDNHIDYLKWDYNRHFSQPGSPVLPPDQQGEVGYRYTRGLYRVLKTLRDTFPKLLIENCSSGGGRLDGGMIAYTDQTWTSDFTDPVYRMKIMNGFSLFFPLKIFVSHFTASPNLQDARLTPLHTRALLSLVGITGIECPPSQLSPAEAAAVKASFAFYKANRKELQNGLLFRLQPSHVNQDEVCWLITNAAKTKALVLTSVGVTSPIPHYQHVLLHYLDPKLSYQIDNTKNATGLELNHAGVTLPLAHGDFSATLMELTAVTNLPQPTAAPTLEHHHHHH” the protein production was “failed”.

For “MLAELFAVMAPVLFGAGVGYVWVRLGHAYPTEFVSRIVFNIGSPCLILATLAHTRVDLHSFGRMALASALICVCMAALGWAAARLGRQEWQVLVPAYSFPNVGNMGLPVCLYAFGEAGMTLAVAFYLIMSIGNFSLGVFWMSGERSWRSLLGNPILLSVLLALLLMGLDLQLPRWMANTVDLMAGLTIPLMLITLGVSLASIRPRQLGNGFFYGGLRLLLGALVGWSVALALQLPPLAQGVLVVQSSMPVAVFNYLYALRGNRSPDQVASLVLCSTLLSFAFIPLLLTWWLPALR”, the protein production was “failed”.

With “MAKHEQILVLDPPSDLKFKGPFTDVVTTNLKLQNPSDRKVCFKVKTTAPRRYCVRPNSGIIDPGSIVTVSVMLQPFDYDPNEKSKHKFMVQTIFAPPNISDMEAVWKEAKPDELMDSKLRCVFEMPNENDKLND” the protein production was “not failed”.

For “MAHTVYENARIYTVNDQQPTASVLVVEQGKIIYVGGNDGAKQFKATAAELFDLEGKTVLPGFIESHAHPLEHHHHHH”, the protein production was “failed”.

In the case of “MLSIIIPVYNEKGNILELTSRIKSALKNNEYEIVFVDDSTDETPKIIESLALKYNNIRLKHRKGKKGLSSAVIDGFKLARGDVLSVMDGDLQHPPEMLESMLFQMKKDTDIVICSRFVLGGKEEGLNIFRKFASFIARLIGKIFLKPLRKISDPTAGFFMLKRKVIKNRDLRAIGWKILIEILVMGDYKRVVELPYSFKRRKHEKSKFTISVQGQYLKQIVSLFIRSKKYNIKLEHHHHHH”, the protein production is reported as “not failed”.

In the case of “SSQQRPARKLPSLLLDPTEETVRRRCRDPINVEGLLPSKIRINLEDNVQYVSMRKALKVKRPRFDVSLVYLTRKFMDLVRSAPGGILDLNKVATKLGVRKRRVYDITNVLDGIDLVEKKSKNHIRWIGSDLSNFGAVPQQKKLQEELSDLSAMEDALDELIKDCAQQLFELTDDKENERLAYVTYQDIHSIQAFHEQIVIAVKAPAETRLDVPAPREDSITVHIRSTNGPIDVYLCEVEQGQTSNKRSEGVGTSSSESTHPEGPEEEENPQQSEELLEVSN”, the protein production is reported as “failed”.

In the case of “GQYALTNGDPLNGHCYLSGYISLLLRAEPYPTSRYGSQCMQPNNIMGIENICELAARLLFSAVEWARNIPFFPDLQITDQVSLLRLTWSELFVLNAAQCSMPLHVAPLLAAAGLHASPMSADRVVAFMDHIRIFQEQVEKLKALHVDSAEYSCLKAIVLFTSDACGLSDAAHIESLQEKSQCALEEYVRSQYPNQPSRFGKLLLRLPSLRTVSSSVIEQLFFVRLVGKTPIETLIRDMLLSGSSFNWPYMSIQCS”, the protein production is reported as “failed”.

With “KALAHAKNDSVAVATDDLKEGEEIQVAFLDNNEKTKITTAEVIPLGHKISLKDIKKGENVIEYGEVIGAATKDIKRGEHVHIHNIKSLRW” the protein production was “failed”.
